The assay concerns the target T1, IL-2Rbg on mouse splenocytes (NK cells, CD8+ T cells, Treg cells) (mouse) (UniProt P16297).
T1 sequence (looked up) 1: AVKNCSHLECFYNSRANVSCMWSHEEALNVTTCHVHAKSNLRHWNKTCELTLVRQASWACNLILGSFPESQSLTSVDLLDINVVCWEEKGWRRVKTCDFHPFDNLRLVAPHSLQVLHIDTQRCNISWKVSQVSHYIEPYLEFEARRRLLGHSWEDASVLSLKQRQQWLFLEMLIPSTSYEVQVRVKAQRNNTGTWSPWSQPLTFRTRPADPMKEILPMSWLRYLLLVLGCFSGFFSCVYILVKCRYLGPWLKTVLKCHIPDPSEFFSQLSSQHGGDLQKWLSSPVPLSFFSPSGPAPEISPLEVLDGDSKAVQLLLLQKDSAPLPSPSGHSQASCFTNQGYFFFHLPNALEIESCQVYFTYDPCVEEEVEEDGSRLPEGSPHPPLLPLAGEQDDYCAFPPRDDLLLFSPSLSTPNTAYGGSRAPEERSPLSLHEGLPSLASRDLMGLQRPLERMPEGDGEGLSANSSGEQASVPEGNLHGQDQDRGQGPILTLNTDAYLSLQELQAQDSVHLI
T1 sequence (looked up) 2: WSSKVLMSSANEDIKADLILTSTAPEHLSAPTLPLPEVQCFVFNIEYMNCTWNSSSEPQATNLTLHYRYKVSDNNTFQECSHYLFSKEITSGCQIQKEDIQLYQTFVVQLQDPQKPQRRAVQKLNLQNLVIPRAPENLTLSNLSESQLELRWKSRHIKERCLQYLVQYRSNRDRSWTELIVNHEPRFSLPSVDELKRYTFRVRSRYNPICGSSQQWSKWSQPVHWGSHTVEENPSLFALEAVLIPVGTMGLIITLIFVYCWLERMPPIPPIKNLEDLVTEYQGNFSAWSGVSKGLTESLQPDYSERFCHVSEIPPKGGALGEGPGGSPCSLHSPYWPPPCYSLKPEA
Description: cell-based or functional assay.

B1: CTRL-mIL2v2 (protein, part only; not given: control antibody chains and linker, not shown: small tags and cut ends)
heavy, part: APTSSSTSSSTAEAQQQQQQQQQQQQHLEQLLMDLQELLSRMENYRNLKLPEMLTAKFALPKQATELKDLQCLEDELGPLRHVLDLTQSKSFQLEDAENFISNIRVTVVKLKGSDNTFECQFDDESATVVDFLRRWIAFAQSIISTSPQ
Molecule B1 yielded a pSTAT5 staining of murine splenocytes, EC50 on CD8+ T cells of 26 nM; a pSTAT5 staining of murine splenocytes, EC50 on NK cells of 8.6 nM; a pSTAT5 staining of murine splenocytes, EC50 on Treg cells of 42.5 nM.

The record behind these values is patent US20260098090A1.
